# Patent US20260201008A1, “SECRETIN-DERIVED GLP1R SELECTIVE AGONISTS” (GUBRA A/S, priority 2023, published 2026)
# Numbered stars: 1 amine (or outer) side, 2 acyl side, 3 side chain; on linkers, the order of the positions; unused ones are H or OH. Square brackets hold non-standard residues; d marks the D form. Side chains are listed from the residue outwards. Ends that are not written are not given here. * marks the point of attachment. C20 diacid = O=C(O)CCCCCCCCCCCCCCCCCCC(=O)*; γGlu = O=C(O)[C@H](CCC(=O)[*:2])N[*:1]; AEEA = NCCOCCOCC(=O)O; Aib = CC(C)(N)C(=O)O
# B1: SEQ ID NO: 197 (peptide)
# peptide: H[Aib]EGTFTSDYS[Aib]LLEGAALQRFIQWLV-NH2
# modifications: N-terminus assumed
# SMILES: CC[C@H](C)[C@H](NC(=O)[C@H](Cc1ccccc1)NC(=O)[C@H](CCCNC(=N)N)NC(=O)[C@H](CCC(N)=O)NC(=O)[C@H](CC(C)C)NC(=O)[C@H](C)NC(=O)[C@H](C)NC(=O)CNC(=O)[C@H](CCC(=O)O)NC(=O)[C@H](CC(C)C)NC(=O)[C@H](CC(C)C)NC(=O)C(C)(C)NC(=O)[C@H](CO)NC(=O)[C@H](Cc1ccc(O)cc1)NC(=O)[C@H](CC(=O)O)NC(=O)[C@H](CO)NC(=O)[C@@H](NC(=O)[C@H](Cc1ccccc1)NC(=O)[C@@H](NC(=O)CNC(=O)[C@H](CCC(=O)O)NC(=O)C(C)(C)NC(=O)[C@@H](N)Cc1c[nH]cn1)[C@@H](C)O)[C@@H](C)O)C(=O)N[C@@H](CCC(N)=O)C(=O)N[C@@H](Cc1c[nH]c2ccccc12)C(=O)N[C@@H](CC(C)C)C(=O)N[C@H](C(N)=O)C(C)C
# B2: SEQ ID NO: 198 (peptide)
# peptide: H[Aib]EGTFTSDYSVLLEGAALQRFIQWLV-NH2
# modifications: N-terminus assumed
# SMILES: CC[C@H](C)[C@H](NC(=O)[C@H](Cc1ccccc1)NC(=O)[C@H](CCCNC(=N)N)NC(=O)[C@H](CCC(N)=O)NC(=O)[C@H](CC(C)C)NC(=O)[C@H](C)NC(=O)[C@H](C)NC(=O)CNC(=O)[C@H](CCC(=O)O)NC(=O)[C@H](CC(C)C)NC(=O)[C@H](CC(C)C)NC(=O)[C@@H](NC(=O)[C@H](CO)NC(=O)[C@H](Cc1ccc(O)cc1)NC(=O)[C@H](CC(=O)O)NC(=O)[C@H](CO)NC(=O)[C@@H](NC(=O)[C@H](Cc1ccccc1)NC(=O)[C@@H](NC(=O)CNC(=O)[C@H](CCC(=O)O)NC(=O)C(C)(C)NC(=O)[C@@H](N)Cc1c[nH]cn1)[C@@H](C)O)[C@@H](C)O)C(C)C)C(=O)N[C@@H](CCC(N)=O)C(=O)N[C@@H](Cc1c[nH]c2ccccc12)C(=O)N[C@@H](CC(C)C)C(=O)N[C@H](C(N)=O)C(C)C
# B3: SEQ ID NO: 196 (peptide)
# peptide: H[Aib]EGTFTSDYSYLK([AEEA-AEEA-γGlu-C20 diacid])EEA[Aib]LQRFLEHLV-NH2
# B4: SEQ ID NO: 20 (peptide)
# peptide: H[Aib]EGTFTSDVSTLK([AEEA-AEEA-γGlu-C20 diacid])ETAASQRFLEHLV-NH2
# B5: SEQ ID NO: 200 (peptide)
# peptide: H[Aib]EGTFTSDYSWLLEGAALQRFIQWLV-NH2
# modifications: N-terminus assumed
# SMILES: CC[C@H](C)[C@H](NC(=O)[C@H](Cc1ccccc1)NC(=O)[C@H](CCCNC(=N)N)NC(=O)[C@H](CCC(N)=O)NC(=O)[C@H](CC(C)C)NC(=O)[C@H](C)NC(=O)[C@H](C)NC(=O)CNC(=O)[C@H](CCC(=O)O)NC(=O)[C@H](CC(C)C)NC(=O)[C@H](CC(C)C)NC(=O)[C@H](Cc1c[nH]c2ccccc12)NC(=O)[C@H](CO)NC(=O)[C@H](Cc1ccc(O)cc1)NC(=O)[C@H](CC(=O)O)NC(=O)[C@H](CO)NC(=O)[C@@H](NC(=O)[C@H](Cc1ccccc1)NC(=O)[C@@H](NC(=O)CNC(=O)[C@H](CCC(=O)O)NC(=O)C(C)(C)NC(=O)[C@@H](N)Cc1c[nH]cn1)[C@@H](C)O)[C@@H](C)O)C(=O)N[C@@H](CCC(N)=O)C(=O)N[C@@H](Cc1c[nH]c2ccccc12)C(=O)N[C@@H](CC(C)C)C(=O)N[C@H](C(N)=O)C(C)C
# B6: SEQ ID NO: 191 (peptide)
# peptide: H[Aib]EGTFTSDWSWLLEGAALQRFIQWLV-NH2
# modifications: N-terminus assumed
# SMILES: CC[C@H](C)[C@H](NC(=O)[C@H](Cc1ccccc1)NC(=O)[C@H](CCCNC(=N)N)NC(=O)[C@H](CCC(N)=O)NC(=O)[C@H](CC(C)C)NC(=O)[C@H](C)NC(=O)[C@H](C)NC(=O)CNC(=O)[C@H](CCC(=O)O)NC(=O)[C@H](CC(C)C)NC(=O)[C@H](CC(C)C)NC(=O)[C@H](Cc1c[nH]c2ccccc12)NC(=O)[C@H](CO)NC(=O)[C@H](Cc1c[nH]c2ccccc12)NC(=O)[C@H](CC(=O)O)NC(=O)[C@H](CO)NC(=O)[C@@H](NC(=O)[C@H](Cc1ccccc1)NC(=O)[C@@H](NC(=O)CNC(=O)[C@H](CCC(=O)O)NC(=O)C(C)(C)NC(=O)[C@@H](N)Cc1c[nH]cn1)[C@@H](C)O)[C@@H](C)O)C(=O)N[C@@H](CCC(N)=O)C(=O)N[C@@H](Cc1c[nH]c2ccccc12)C(=O)N[C@@H](CC(C)C)C(=O)N[C@H](C(N)=O)C(C)C
# B7: SEQ ID NO: 192 (peptide)
# peptide: H[Aib]EGTFTSDWS[Aib]LLEGAALQRFIQWLV-NH2
# modifications: N-terminus assumed
# SMILES: CC[C@H](C)[C@H](NC(=O)[C@H](Cc1ccccc1)NC(=O)[C@H](CCCNC(=N)N)NC(=O)[C@H](CCC(N)=O)NC(=O)[C@H](CC(C)C)NC(=O)[C@H](C)NC(=O)[C@H](C)NC(=O)CNC(=O)[C@H](CCC(=O)O)NC(=O)[C@H](CC(C)C)NC(=O)[C@H](CC(C)C)NC(=O)C(C)(C)NC(=O)[C@H](CO)NC(=O)[C@H](Cc1c[nH]c2ccccc12)NC(=O)[C@H](CC(=O)O)NC(=O)[C@H](CO)NC(=O)[C@@H](NC(=O)[C@H](Cc1ccccc1)NC(=O)[C@@H](NC(=O)CNC(=O)[C@H](CCC(=O)O)NC(=O)C(C)(C)NC(=O)[C@@H](N)Cc1c[nH]cn1)[C@@H](C)O)[C@@H](C)O)C(=O)N[C@@H](CCC(N)=O)C(=O)N[C@@H](Cc1c[nH]c2ccccc12)C(=O)N[C@@H](CC(C)C)C(=O)N[C@H](C(N)=O)C(C)C
# B8: SEQ ID NO: 190 (peptide)
# peptide: H[Aib]EGTFTSDWSFLLEGAALQRFIQWLV-NH2
# modifications: N-terminus assumed
# SMILES: CC[C@H](C)[C@H](NC(=O)[C@H](Cc1ccccc1)NC(=O)[C@H](CCCNC(=N)N)NC(=O)[C@H](CCC(N)=O)NC(=O)[C@H](CC(C)C)NC(=O)[C@H](C)NC(=O)[C@H](C)NC(=O)CNC(=O)[C@H](CCC(=O)O)NC(=O)[C@H](CC(C)C)NC(=O)[C@H](CC(C)C)NC(=O)[C@H](Cc1ccccc1)NC(=O)[C@H](CO)NC(=O)[C@H](Cc1c[nH]c2ccccc12)NC(=O)[C@H](CC(=O)O)NC(=O)[C@H](CO)NC(=O)[C@@H](NC(=O)[C@H](Cc1ccccc1)NC(=O)[C@@H](NC(=O)CNC(=O)[C@H](CCC(=O)O)NC(=O)C(C)(C)NC(=O)[C@@H](N)Cc1c[nH]cn1)[C@@H](C)O)[C@@H](C)O)C(=O)N[C@@H](CCC(N)=O)C(=O)N[C@@H](Cc1c[nH]c2ccccc12)C(=O)N[C@@H](CC(C)C)C(=O)N[C@H](C(N)=O)C(C)C
# B9: SEQ ID NO: 195 (peptide)
# peptide: H[Aib]EGTFTSDYSGLLEGAALQRFIQWLV-NH2
# modifications: N-terminus assumed
# SMILES: CC[C@H](C)[C@H](NC(=O)[C@H](Cc1ccccc1)NC(=O)[C@H](CCCNC(=N)N)NC(=O)[C@H](CCC(N)=O)NC(=O)[C@H](CC(C)C)NC(=O)[C@H](C)NC(=O)[C@H](C)NC(=O)CNC(=O)[C@H](CCC(=O)O)NC(=O)[C@H](CC(C)C)NC(=O)[C@H](CC(C)C)NC(=O)CNC(=O)[C@H](CO)NC(=O)[C@H](Cc1ccc(O)cc1)NC(=O)[C@H](CC(=O)O)NC(=O)[C@H](CO)NC(=O)[C@@H](NC(=O)[C@H](Cc1ccccc1)NC(=O)[C@@H](NC(=O)CNC(=O)[C@H](CCC(=O)O)NC(=O)C(C)(C)NC(=O)[C@@H](N)Cc1c[nH]cn1)[C@@H](C)O)[C@@H](C)O)C(=O)N[C@@H](CCC(N)=O)C(=O)N[C@@H](Cc1c[nH]c2ccccc12)C(=O)N[C@@H](CC(C)C)C(=O)N[C@H](C(N)=O)C(C)C
# B10: SEQ ID NO: 199 (peptide)
# peptide: H[Aib]EGTFTSDYSELLEGAALQRFIQWLV-NH2
# modifications: N-terminus assumed
# SMILES: CC[C@H](C)[C@H](NC(=O)[C@H](Cc1ccccc1)NC(=O)[C@H](CCCNC(=N)N)NC(=O)[C@H](CCC(N)=O)NC(=O)[C@H](CC(C)C)NC(=O)[C@H](C)NC(=O)[C@H](C)NC(=O)CNC(=O)[C@H](CCC(=O)O)NC(=O)[C@H](CC(C)C)NC(=O)[C@H](CC(C)C)NC(=O)[C@H](CCC(=O)O)NC(=O)[C@H](CO)NC(=O)[C@H](Cc1ccc(O)cc1)NC(=O)[C@H](CC(=O)O)NC(=O)[C@H](CO)NC(=O)[C@@H](NC(=O)[C@H](Cc1ccccc1)NC(=O)[C@@H](NC(=O)CNC(=O)[C@H](CCC(=O)O)NC(=O)C(C)(C)NC(=O)[C@@H](N)Cc1c[nH]cn1)[C@@H](C)O)[C@@H](C)O)C(=O)N[C@@H](CCC(N)=O)C(=O)N[C@@H](Cc1c[nH]c2ccccc12)C(=O)N[C@@H](CC(C)C)C(=O)N[C@H](C(N)=O)C(C)C
# B11: SEQ ID NO: 193 (peptide)
# peptide: H[Aib]EGTFTSDWSELLEGAALQRFIQWLV-NH2
# modifications: N-terminus assumed
# SMILES: CC[C@H](C)[C@H](NC(=O)[C@H](Cc1ccccc1)NC(=O)[C@H](CCCNC(=N)N)NC(=O)[C@H](CCC(N)=O)NC(=O)[C@H](CC(C)C)NC(=O)[C@H](C)NC(=O)[C@H](C)NC(=O)CNC(=O)[C@H](CCC(=O)O)NC(=O)[C@H](CC(C)C)NC(=O)[C@H](CC(C)C)NC(=O)[C@H](CCC(=O)O)NC(=O)[C@H](CO)NC(=O)[C@H](Cc1c[nH]c2ccccc12)NC(=O)[C@H](CC(=O)O)NC(=O)[C@H](CO)NC(=O)[C@@H](NC(=O)[C@H](Cc1ccccc1)NC(=O)[C@@H](NC(=O)CNC(=O)[C@H](CCC(=O)O)NC(=O)C(C)(C)NC(=O)[C@@H](N)Cc1c[nH]cn1)[C@@H](C)O)[C@@H](C)O)C(=O)N[C@@H](CCC(N)=O)C(=O)N[C@@H](Cc1c[nH]c2ccccc12)C(=O)N[C@@H](CC(C)C)C(=O)N[C@H](C(N)=O)C(C)C
# Target: human secretin receptor (hSCTR) (human, UniProt P47872 23-440)
# Sequence (P47872 23-440): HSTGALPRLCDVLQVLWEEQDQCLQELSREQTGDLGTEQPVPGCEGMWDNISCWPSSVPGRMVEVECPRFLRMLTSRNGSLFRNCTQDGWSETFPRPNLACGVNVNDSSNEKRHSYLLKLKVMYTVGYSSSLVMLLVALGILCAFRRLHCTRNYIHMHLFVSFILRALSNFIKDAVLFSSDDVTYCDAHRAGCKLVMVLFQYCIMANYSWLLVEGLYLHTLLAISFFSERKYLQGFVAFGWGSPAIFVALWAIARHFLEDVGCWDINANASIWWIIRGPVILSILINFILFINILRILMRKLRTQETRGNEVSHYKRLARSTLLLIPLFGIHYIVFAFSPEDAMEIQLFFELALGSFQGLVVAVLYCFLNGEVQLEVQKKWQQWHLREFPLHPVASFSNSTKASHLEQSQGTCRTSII
# Assay: cell-based or functional assay
row,Binder,pEC50 hSCTR
1,B1,8.1 -log M
2,B2,8.3 -log M
3,B3,7.7 -log M
4,B4,6.4 -log M
5,B5,8.1 -log M
6,B6,7.2 -log M
7,B7,7.3 -log M
8,B8,7 -log M
9,B9,8 -log M
10,B10,8.3 -log M
11,B11,7.9 -log M

# Target: human GLP-1 receptor (hGLP1R) (human, UniProt P43220 24-463)
# Assay: cell-based or functional assay
row,Binder,pEC50 hGLPR1
1,B1,10.8 -log M
2,B2,10.6 -log M
3,B3,10.9 -log M
4,B4,10.7 -log M
5,B5,10.7 -log M
6,B6,10.1 -log M
7,B7,9.9 -log M
8,B8,10.2 -log M
9,B9,10.6 -log M
10,B10,10.6 -log M
11,B11,10.6 -log M
